± gives the uncertainty stated by the source.
B1: Histone H1t, residues 44 to 112; numbered along this chain, P22492 (parent)
chain: VSKLITEALSVSQERVGMSLVALKKALAAAGYDVEKNNSRIKLSLKSLVNKGILVQTRGTGASGSFKLS
B2: Chromodomain-helicase-DNA-binding protein 7, residues 2564 to 2605; numbered along this chain, Q9P2D1 (parent)
chain: DPDTRIPVINLEDGTRLVGEDAPKNKDLVEWLKLHPTYTVDM

Variants of: B1
Test: abundance fitness (aPCA) (normalised: wild type 0, dead -1); higher = more abundant; growth selection in yeast, the domain comes from the species named
Settings: Homo sapiens

Variant	abundance fitness
A62E	0.133 ± 0.037
A62D	0.008 ± 0.11
A62H	-0.054 ± 0.042
S47D	-0.07 ± 0.18
S47V	-0.307 ± 0.071
S47H	-0.13 ± 0.082
S47L	-0.228 ± 0.033
S47R	-0.087 ± 0.058
S47C	0.036 ± 0.16
S47W	-0.143 ± 0.09
L43P	-0.483 ± 0.033
L43E	0.229 ± 0.035
L43A	0.18 ± 0.032
L54Q	0.092 ± 0.16
L27M	-0.159 ± 0.038
L27Q	-1.06 ± 0.11
L27G	-0.681 ± 0.1
L27F	-0.221 ± 0.036
S2E	0.566 ± 0.22
S2Y	-0.185 ± 0.039
S2D	0.251 ± 0.12
V21W	-0.16 ± 0.096
V21Y	-0.207 ± 0.028
G17M	-0.296 ± 0.048

Variant	abundance fitness
G17D	-0.398 ± 0.12
G17A	-0.07 ± 0.089
A22F	-0.413 ± 0.07
A22C	-0.034 ± 0.18
A22L	-0.393 ± 0.059
R58M	-0.077 ± 0.048
G31V	-0.149 ± 0.1
G31D	-0.752 ± 0.22
G31S	-0.264 ± 0.042
G31W	-0.387 ± 0.2
Q56R	-0.031 ± 0.034
Q56T	0.047 ± 0.028
D33H	0.143 ± 0.078
D33L	-0.034 ± 0.033
D33T	-0.025 ± 0.056
D33A	0.063 ± 0.035
V55C	-0.077 ± 0.1
V55T	0.062 ± 0.053
L68R	-0.138 ± 0.039
L68K	-0.064 ± 0.058
L68I	-0.223 ± 0.045
L68S	-0.115 ± 0.039
L68Q	-0.327 ± 0.069
V34Q	-0.309 ± 0.051

Variant	abundance fitness
V34T	-0.068 ± 0.047
V34M	-0.098 ± 0.053
Q13N	-0.206 ± 0.053
Q13V	-0.342 ± 0.069
Q13G	-0.211 ± 0.065
Q13Y	-0.212 ± 0.042
Q13M	-0.377 ± 0.046
N50A	-0.037 ± 0.036
N50V	-0.388 ± 0.046
N50G	-0.099 ± 0.04
N50W	-0.827 ± 0.077
G52I	-0.352 ± 0.054
G52K	-0.123 ± 0.066
G52T	-0.15 ± 0.036
G52H	-0.283 ± 0.05
G59E	-0.086 ± 0.053
M18L	-0.077 ± 0.034
S69G	-0.218 ± 0.087
S69E	0.119 ± 0.097
S69R	-0.151 ± 0.041
K24M	-0.295 ± 0.046
K24H	-0.694 ± 0.12
K24I	-0.738 ± 0.079
S65Q	0.039 ± 0.031

Variant	abundance fitness
Y32I	0.022 ± 0.049
Y32P	-0.228 ± 0.034
Y32Q	-0.121 ± 0.048
V11K	0.053 ± 0.064
V11L	-0.129 ± 0.034
V11D	-0.138 ± 0.055
K3C	-0.411 ± 0.063
K3V	-0.431 ± 0.041
K3I	-0.656 ± 0.072
K3F	-0.595 ± 0.091
K3R	-0.251 ± 0.043
V49L	0.052 ± 0.035
K51G	-0.322 ± 0.097
K51R	0.132 ± 0.062
K51V	-0.481 ± 0.042
K51E	0.016 ± 0.078
K51L	-0.281 ± 0.031
L45E	-0.978 ± 0.46
L45F	-0.372 ± 0.081
L45K	-0.859 ± 0.15
L45H	-1.2 ± 0.48
K36W	-0.626 ± 0.055
K36N	-0.019 ± 0.11
K36G	-0.251 ± 0.047

Variant	abundance fitness
K36P	-0.62 ± 0.046
K36E	-0.428 ± 0.069
K36Y	-0.362 ± 0.092
K36T	-0.323 ± 0.048
A26D	-0.954 ± 0.23
A26F	-0.172 ± 0.03
A26R	-0.415 ± 0.11
A26N	-0.401 ± 0.051
A26P	-0.906 ± 0.19
R15Q	-0.143 ± 0.24
R15Y	-0.338 ± 0.069
R15N	0.063 ± 0.081
R15I	-0.312 ± 0.076
I53C	-0.153 ± 0.063
I53W	-0.062 ± 0.075
I53Q	0.033 ± 0.046
I53P	-0.202 ± 0.041
I53F	-0.031 ± 0.042
I53Y	-0.184 ± 0.056
I53H	-0.095 ± 0.058
S39M	-0.228 ± 0.045
K42H	-0.158 ± 0.073
K42T	-0.045 ± 0.035
K42F	-0.413 ± 0.12

Variant	abundance fitness
K42V	-0.024 ± 0.028
K42Y	-0.138 ± 0.086
N37P	-0.173 ± 0.28
N37S	-0.013 ± 0.28
N37D	-0.397 ± 0.24
L23C	-0.363 ± 0.077
L23N	-0.95 ± 0.13
L23Y	-0.933 ± 0.088
L23G	-1.27 ± 0.2
L23I	-0.087 ± 0.05
E7Q	-0.429 ± 0.15
E7I	-0.739 ± 0.047
T57M	-0.048 ± 0.034
T57Y	-0.133 ± 0.059
T57I	-0.147 ± 0.049
G64M	0.165 ± 0.043
G64N	-0.373 ± 0.29
A29K	0.153 ± 0.03
A29V	-0.215 ± 0.038
A29I	-0.248 ± 0.03
A29P	-0.491 ± 0.087
V16A	0.037 ± 0.23
V16M	-0.076 ± 0.031
K46D	-0.329 ± 0.28

Variant	abundance fitness
K46Q	-0.226 ± 0.066
A28C	-0.175 ± 0.035
A28L	-0.087 ± 0.031
T60I	-0.115 ± 0.059
T60F	-0.236 ± 0.056
T60L	-0.102 ± 0.031
T60C	-0.042 ± 0.082
T60K	0.013 ± 0.043
L48H	-0.979 ± 0.097
L48V	-0.536 ± 0.087
L48D	-0.405 ± 0.14
A8N	-0.531 ± 0.078
K67Q	-0.092 ± 0.051
K67V	-0.109 ± 0.038
K67N	-0.091 ± 0.045
K67H	-0.148 ± 0.081
K67S	0.024 ± 0.038
K67C	-0.096 ± 0.061
L20C	-0.205 ± 0.038
L20G	-0.412 ± 0.045
L20A	-0.234 ± 0.054
S19T	-0.056 ± 0.051
S19V	-0.11 ± 0.042
S19Y	-0.381 ± 0.048

Variant	abundance fitness
A30T	-0.048 ± 0.049
A30R	0.051 ± 0.038
I5G	-0.942 ± 0.074
I5L	-0.244 ± 0.029
I5D	-1.04 ± 0.22
I5H	-1.46 ± 0.39
I5Q	-1.28 ± 0.27
S63Y	-0.204 ± 0.06
S63H	0.025 ± 0.058
S44C	0.217 ± 0.18
F66R	-0.084 ± 0.04
F66H	-0.289 ± 0.069
F66W	-0.064 ± 0.046
E35S	-0.134 ± 0.032
S12W	-0.416 ± 0.068
S12E	-0.429 ± 0.081
S12G	0.019 ± 0.048
S12D	0.019 ± 0.076
S12L	-0.005 ± 0.032
S12M	-0.093 ± 0.044
S12Q	-0.034 ± 0.09
V1T	-0.337 ± 0.076
V1K	-0.403 ± 0.12
V1M	-0.16 ± 0.094

Variant	abundance fitness
E14F	-0.852 ± 0.039
E14V	-0.651 ± 0.13
E14S	-0.274 ± 0.05
R40K	0.128 ± 0.031
R40T	-0.085 ± 0.03
I41T	-0.56 ± 0.039
I41M	-0.191 ± 0.031
I41V	-0.308 ± 0.041
I41E	-0.813 ± 0.11
T6F	-0.578 ± 0.14
T6W	-0.737 ± 0.15
T6R	-0.04 ± 0.074
K25A	-0.225 ± 0.048
K25D	-0.158 ± 0.058
K25S	-0.23 ± 0.046
K25W	-0.602 ± 0.064
N38K	-0.124 ± 0.36
N38S	0.044 ± 0.09
N38H	-0.405 ± 0.39
N38L	0.048 ± 0.066
N38M	0.084 ± 0.16

Variants of: B2
Test: as above
Settings: Homo sapiens

Variant	abundance fitness
P7F	-1.07 ± 0.27
P7R	0.064 ± 0.14
P7N	-0.145 ± 0.22
P7G	0.227 ± 0.096
P7D	0.133 ± 0.13
P7M	-0.297 ± 0.12
P7Q	-0.691 ± 0.44
P7T	-0.046 ± 0.34
P7K	0.082 ± 0.13
P7V	-0.238 ± 0.12
P7C	-0.347 ± 0.2
P7A	0.067 ± 0.13
R5T	-0.244 ± 0.1
R5M	-0.242 ± 0.1
R5K	0.124 ± 0.095
R5G	-0.374 ± 0.082
R5N	-0.349 ± 0.081
R5I	-0.39 ± 0.14
R5S	-0.303 ± 0.081
R5V	-0.372 ± 0.13
R5W	-0.906 ± 0.2
R5F	-0.451 ± 0.083
R5C	-0.27 ± 0.23
R5D	-0.709 ± 0.16
R5P	-0.004 ± 0.22

Variant	abundance fitness
R5Q	-0.493 ± 0.25
R5L	-0.844 ± 0.26
P2R	0.161 ± 0.071
P2H	-0.737 ± 0.18
P2F	-0.513 ± 0.24
P2C	0.148 ± 0.07
P2S	0.017 ± 0.062
P2W	-0.02 ± 0.06
P2T	0.179 ± 0.072
P2I	-0.078 ± 0.1
P2L	-0.179 ± 0.06
P2D	-0.301 ± 0.19
P2Q	0.182 ± 0.059
P2G	-0.074 ± 0.066
P2A	-0.031 ± 0.059
V8N	-0.578 ± 0.13
V8I	-0.433 ± 0.45
V8G	-0.66 ± 0.079
V8R	-0.624 ± 0.15
V8W	-0.794 ± 0.15
V8Q	-0.384 ± 0.21
V8K	-0.387 ± 0.17
V8E	-0.516 ± 0.11
V8Y	-0.894 ± 0.12
V8C	-0.577 ± 0.27

Variant	abundance fitness
V8A	-0.535 ± 0.18
V8H	-0.577 ± 0.11
V8S	-0.644 ± 0.2
V8P	-0.534 ± 0.075
V8F	-0.869 ± 0.089
V8L	-0.481 ± 0.1
V8D	-0.511 ± 0.16
N10H	-0.298 ± 0.1
N10K	-0.341 ± 0.065
N10I	-1.4 ± 0.24
N10E	-0.786 ± 0.41
N10D	-0.154 ± 0.07
N10V	-0.852 ± 0.086
N10M	-0.598 ± 0.074
N10C	-0.054 ± 0.059
N10A	-0.598 ± 0.081
N10F	-0.85 ± 0.065
N10S	-0.025 ± 0.056
N10Q	-0.738 ± 0.24
N10R	-0.409 ± 0.062
N10G	-0.388 ± 0.061
N10L	-1.01 ± 0.076
N10T	-0.466 ± 0.2
I6E	-0.276 ± 0.11
I6L	-0.697 ± 0.22

Variant	abundance fitness
I6F	-0.283 ± 0.15
I6Y	-0.699 ± 0.21
I6N	-0.419 ± 0.31
I6D	-0.201 ± 0.17
I6V	0.262 ± 0.1
I6S	-0.189 ± 0.44
I6H	-0.133 ± 0.23
I9D	-0.345 ± 0.12
I9L	0.026 ± 0.078
I9Q	-0.032 ± 0.12
I9F	-0.075 ± 0.1
I9R	0.064 ± 0.12
I9V	0.04 ± 0.053
I9E	-0.088 ± 0.21
I9G	-0.159 ± 0.063
I9S	-0.098 ± 0.091
I9T	-0.012 ± 0.095
I9C	-0.123 ± 0.09
I9A	-0.111 ± 0.1
D1V	-0.184 ± 0.063
D1A	-0.69 ± 0.093
D1L	-0.43 ± 0.062
D1R	-1 ± 0.11
D1Y	-0.298 ± 0.12
D1C	-0.283 ± 0.1

Variant	abundance fitness
D1S	-0.237 ± 0.081
D1F	0.073 ± 0.29
D1G	-0.901 ± 0.1
D1E	-1.19 ± 0.23
T4P	-0.286 ± 0.12
T4I	-0.115 ± 0.14
D3V	-0.335 ± 0.095
D3L	-0.122 ± 0.052
D3T	-0.182 ± 0.05
D3F	-0.259 ± 0.11
D3M	-0.063 ± 0.059
D3A	-0.283 ± 0.052
D3G	-0.384 ± 0.053
D3S	-0.137 ± 0.051
D3Q	-0.109 ± 0.073
D3R	-0.256 ± 0.055
D3H	0.089 ± 0.087
D3I	-0.54 ± 0.094
D3E	0.106 ± 0.057
D3C	-0.749 ± 0.22
D3W	-0.53 ± 0.11

— the Human Domainome abundance scans (Beltran et al. 2025)
